The values that follow come from article PMC4836315.

Assay [1] deals with PRRSV nsp11 mutant F76A, pET-30a (+) construct (PRRSV strain WUH3).
For assay [2], the target named is PRRSV nsp11 mutant G1A (PRRSV strain WUH3). The experiment in a line: SEC; data not shown; Superdex 75 10/300 GL under the same buffer conditions (20 mM Tris-HCl pH 7.4, 200 mM NaCl), 1 mg protein. A general note: Size exclusion chromatography separates by hydrodynamic size, large species first.
The target of assay [3] is PRRSV nsp11 mutant G137A (PRRSV strain WUH3). Described as above.
For assay [4], the target named is PRRSV nsp11 mutant G138A (PRRSV strain WUH3). Described as above.
Assay [5] addresses PRRSV nsp11 mutant K173A, pET-42b (+) construct with C-terminal His6 tag (PRRSV strain WUH3). The experiment in a line: SEC; Superdex 75 10/300 GL, 20 mM Tris-HCl pH 7.4, 200 mM NaCl, 0.6 ml/min, 4°C, 1 mg protein; masses from a calibration curve; fractions checked by SDS-PAGE.
The target is the same in assay [6]. The assay is described as follows: AUC; sedimentation velocity, 45,000 rpm, 18°C, 280 nm, c(s) distribution with Sedfit.
The target in assay [7] is PRRSV nsp11 mutant F76A made on the K173A template. The experiment in a line: sedimentation velocity analytical ultracentrifugation (AUC).
In assay [8] the target is PRRSV nsp11 mutant R153A made on the K173A template. The description is as above.
For assay [9], the target named is PRRSV nsp11 mutant S74A made on the K173A template. Described as above.
The target in assay [10] is PRRSV nsp11 mutant L54A (PRRSV strain WUH3). The experiment in a line: SEC; data not shown; Superdex 75 10/300 GL under the same buffer conditions (20 mM Tris-HCl pH 7.4, 200 mM NaCl), 1 mg protein.
The target in assay [11] is PRRSV nsp11 mutant R55A (PRRSV strain WUH3). The description is as above.
Assay [12] deals with PRRSV nsp11 mutant S74A, pET-30a (+) construct (PRRSV strain WUH3).
Assay [13] has as its target PRRSV nsp11 mutant S166A (PRRSV strain WUH3). The experiment in a line: SEC; data not shown; Superdex 75 10/300 GL under the same buffer conditions (20 mM Tris-HCl pH 7.4, 200 mM NaCl), 1 mg protein.
For assay [14], the target named is PRRSV nsp11 mutant V165A (PRRSV strain WUH3). The description is as above.
The target in assay [15] is PRRSV nsp11 mutant Y69A (PRRSV strain WUH3). The description is as above.
[16] abbreviates: parent: 4.396 (dimer species, 86.67%), 2.614 (monomer species, 14.04%).
Where [17] appears, read: parent: 63.7 (dimer species, 86.67%), 29.2 (monomer species, 14.04%).

The substance “PRRSV nsp11 mutant F76A, pET-30a (+) construct (enzyme)” returned an endoribonuclease activity (FRET assay, 2 μM enzyme, 1 μM fluorescent RNA substrate, 25°C), against wild-type nsp11 (fold less than wild type) in assay [1] above 4. PRRSV nsp11 mutant G1A (enzyme): in [2], the stoichiometry N (as a rule, a count of units in the complex or per binding partner) was determined as 2.

Take PRRSV nsp11 mutant G137A (enzyme): the stoichiometry N in assay [3] came to 2. In [4], PRRSV nsp11 mutant G138A (enzyme) showed a stoichiometry N of 2.

“PRRSV nsp11 mutant K173A, pET-42b (+) construct with C-terminal His6 tag (enzyme)”: the stoichiometry N in assay [5] was 2. In assay [6], this substance had a percent dimer of 86.7% and a percent monomer of 14%. On to “PRRSV nsp11 mutant K173A, pET-42b (+) construct with C-terminal His6 tag F76A”, for which the other: sedimentation coefficient S20,W in assay [7] (setting [16]) amounted to 3.07 S. In [7] (setting [17]), the other: calculated molecular weight (MW) from AUC was 37.8.

Take “PRRSV nsp11 mutant K173A, pET-42b (+) construct with C-terminal His6 tag R153A”: in assay [8] (setting [16]), the other: sedimentation coefficient S20,W worked out at 3.4 S. The other: calculated molecular weight (MW) from AUC in assay [8] (setting [17]) is 40.7.

For the substance “PRRSV nsp11 mutant K173A, pET-42b (+) construct with C-terminal His6 tag S74A”, in [9] (setting [16]), the other: sedimentation coefficient S20,W stood at 3.32 S. Besides, in [9] (setting [17]), the other: calculated molecular weight (MW) from AUC is 50.2. Regarding PRRSV nsp11 mutant L54A (enzyme), the stoichiometry N in assay [10] was 2. Substance PRRSV nsp11 mutant R55A (enzyme) registered a stoichiometry N in assay [11] of 2. “PRRSV nsp11 mutant S74A, pET-30a (+) construct (enzyme)” gave an endoribonuclease activity (FRET assay, 2 μM enzyme, 1 μM fluorescent RNA substrate, 25°C), against wild-type nsp11 (fold less than wild type) in assay [12] above 4. For the substance PRRSV nsp11 mutant S166A (enzyme), the stoichiometry N in assay [13] came to 2.

Regarding PRRSV nsp11 mutant V165A (enzyme), in assay [14], the stoichiometry N came out at 2.

As for PRRSV nsp11 mutant Y69A (enzyme), the stoichiometry N in assay [15] was 2.
